From publication PMC7781312 (bioRxiv, 2021) come the findings set out here.

The assay concerns the target prefusion-stabilized SARS-CoV S ectodomain trimer (SARS-CoV 2P S) (SARS-CoV Urbani (AAP13441), UniProt P59594, stabilised). The assay is described as follows: BLI. On the technique in general: BLI is a label-free optical method that tracks binding on a fibre tip over time.

B1: B6 monoclonal antibody (recombinant IgG with human constant regions) (antibody, V domains shown)
VH: EVQLQQSGPVLVKPGASVRMSCKASGYTITDYYLNWVKQSHGKSLEWLGVLNPYSGGSLYSQTFKGKATLTVDRSSSTAYLELNSLTSEDSAVYYCARQLGRGNGLDYWGQGTSVTVSS
VL: NIMMTQSPSSLAVSAGEKVTMSCKSSQSVLHSSDQKNYLAWYQQKPGQSPKLLIYWASTRESGVPDRFTGSGSGTDFTLTISSVQAEDLAVYFCHQYLSSYTFGGGTKLEIK
Turning to B1, the binding result is “binds”.
